In patent US11066655B2, “RNA polymerase, methods of purification and methods of use” (President and Fellows of Harvard College, priority 2013, dated 2021):
Substitutions are numbered along the chain they refer to. Names and notes keep the numbering of the source. “Also recorded” adds a separate entry of the source.

B1: Syn5 RNAP-NP: Syn5 RNAP from modified gene (SEQ ID NO:83) with internal Syn5 promoter removed by silent mutations; same amino acids as wild-type (protein)
chain: MSFDLIARQLQRETEAAELARKRLQDARREANERSYASSNIESRKAIATFLDPIAQRIGERLFTLRRGTGAVDAAEVYKHLKNADHHHLALITMKTALDVLGKDPEPQIQQLTTAIGRNIQLELRLTYYAEENPELYKQASRFFHAGTGTRQKATVIKLKFNREGIEWDQWSRVTCHKVGQWLMLAMADVTGWIERATDRTSGGRKTKTRICYSREFLQHRDTILAAAEQLAFCQWPMLCPPIEWSNDHNGGYLSEQIRRVNPLIRKTGPLGTRKQGDIPLAMLNNLQGQAYKVNPEVLDIANHCYESNVTVGKFIRHAPLPVPPSPGEDCTEDQLTAYKRARREAEDFNAQISQKNWRTTEVMYVARKYADEASFWMPASFDYRGRVYFLNTALNPQGTDFDKALLYFAEEGPVNEWWLSFHVATTYGLDKETMVNRVQWARDNHELIDRIASDPVRHTEWHDADEPWCFLAACLEYKACVIDGTKQTSGLPIGIDATCSGLQHLAAMTRCGRTAALVNVTPTDKPADAYKTVAQASLKHLPKEQHEWITRKVTKRPVMCTPYGVTMSSARGYIRDQLVKDGHKEDLRSPGVLNGIVKAIFNEAIPEVIPGPVQVMAWLKRSAGQIIDRGDSTITWTTPSGFEVVQDLKKSKTYEVKTRIMGGARIKLQVGDGFTDEPDRDHHKSALAPNVVHSNDASLLHLTFAFWDKPFTVIHDCVLGRSCDMDQMGSDIRLHFAEMYKADVMQDWADQVGVELPVDLIKNTLDIDSVNQSLYFFS
modifications: Syn5 RNAP-NP
notes: same amino acids as wild-type
B2: Syn5 RNA polymerase Y564F: Syn5 RNA polymerase Y564F mutant for the incorporation of 2′-F-dNTPs (protein)
chain: B1 chain with Y564F
modifications: Amino acid sequence of a cyanophage Syn5 RNAP
notes: Syn5 RNA polymerase Y564F mutant for the incorporation of 2′-F-dNTPs

Columns and labels:
[1] = Activity of Syn5 RNAP-NP (gel); format: biochemical
Source text: FIG. 18 depicts gels showing expression and activity of Syn5 RNAP-NP.
(§1) The wild-type Syn5 RNA polymerase gene was modified as follows to improve expression in E. coli cells. Nucleotides in Syn5 RNA polymerase gene (No. 808-825) CCA TTG GGC ACC CGT AAG (SEQ ID NO:78) encoding Pro Leu Gly Thr Arg Lys (SEQ ID NO:79) were mutated to CCT CTT GGT ACG CGC AAG (SEQ ID NO:80) without changing the amino acids encoded, and the Syn5 promoter A TTG GGC ACC CGT AA (SEQ ID NO:81) within this region was removed (FIG. 16). Thus, when expressed in E. coli, the enzyme produced by the modified gene would not start transcription from its own gene, enabling the cells to grow much faster (FIG. 17) and yield at least 5 times more enzyme than cells expressing wild-type Syn5 RNAP.

E. coli BL21 (DE3) = test: Growth curve of E. coli expressing Syn5 RNA polymerase from wild-type or modified vector; format: cell-based; details: versus vector expressing wild-type Syn5 RNAP
Source text: FIG. 17 graphically depicts a growth curve of E. coli BL21 (DE3) expressing Syn5 RNA polymerase from wild-type (WT, Syn5 RNAP-pET24a) or modified (Syn5 RNAP-NP-pET24a) vector.
as §1
E. coli BL21(DE3) was transformed with plasmid Syn5 RNAP-NP-pET24 encoding an N-terminal His-tagged Syn5 RNA polymerase. Cells were grown at 37° C. until they reached an OD of 1.2, at which point the temperature was reduced to 25° C. and IPTG was added at final concentration of 0.5 mM. Cells were grown an additional 4 hours before collection. The purification procedure used is described in “Zhu B, Tabor S, Richardson CC. (2014) Syn5 RNA polymerase synthesizes precise run-off RNA products. […]

[2] = tested on: template for a 2.7 knt RNA or human mitochondrial tRNA^ProUGG; test: 2′-F-dNTP incorporation by Syn5 RNA polymerase Y564F; format: biochemical
Source text: FIGS. 28A, 28B, 28C and 28D depict gels showing a preference for 2′-F-dC/UTP over rC/UTP by Syn5 RNAP-Y564F.
Syn5 RNA polymerases containing Y564F and/or Y574F mutation were constructed using a known PCR mutagenesis method (see Higuchi et al., Nucleic Acids Res. 16:7351-7367 (1988) hereby incorporated by reference in its entirety), expressed and purified using known methods. The wild type gene background for the mutants was also modified, with the internal Syn5 promoter removed to reduce toxicity and increase the yield of the protein when expressed in E. coli. Purified proteins were analyzed by SDS-PAGE. The mutants were used to incorporate 2′-F-dNTPs as described below.
The reaction components were incubated at 37° C. for 4 hrs. 0.4 µl of the reaction mixture was loaded onto 2% agarose gel or 10% TBE gel and stained with ethidium bromide. Results are shown in FIG. 28A, FIG. 28B, FIG. 28C and FIG. 28D. The Y564F mutation does change the recognition of the 2′-group in the nucleotide substrates by Syn5 RNA polymerase. […] See FIG. 28A lane 4 vs 3; FIG. 28B lane 9-11 vs 6; FIG. 28C lane 11-13 vs 8).

Molecule | enzymatic activity versus wild-type [1] | toxicity to host cells (E. coli BL21 (DE3)) | substrate preference 2′-F-dC/UTP versus rC/UTP ([2]; Mg buffer, 37° C.) | synthesis of long 2′-F RNA ([2]; low enzyme concentration) | transcript with all four 2′-F-dNMPs ([2]; template starting with C) | discrimination to 2′-F-dATP and 2′-F-dGTP ([2]; versus wild type)
B1 | same enzymatic activity as the wild-type Syn5 RNAP; also recorded: comparable enzymatic activity | less toxic to host cells |  |  |  | 
B2 |  |  | prefers 2′-F-dCTP and 2′-F-dUTP to canonical rCTP and rUTP | stably synthesizes long RNA containing 2′-F-dCMP and 2′-F-dUMP | Full-length transcript including all four 2′-F-dNMPs was synthesized | reduced
